Data from patent US20180282719A1 (published 2018).

Assays:
[1] = target: T1, recombinant soluble human IL-6 receptor (SR344) (human, UniProt P08887 20-344, biotinylated (sites not given) where immobilized via streptavidin or used in phage ELISA); assay: SPR Biacore T100, antibody captured by anti-IgG gamma chain F(ab)2, SR344 analyte, pH 7.4, 37 C
T1 construct: also called soluble IL-6 receptor; membrane-type IL-6 receptor (when biotinylated and immobilized on the chip)
T1 sequence (looked up): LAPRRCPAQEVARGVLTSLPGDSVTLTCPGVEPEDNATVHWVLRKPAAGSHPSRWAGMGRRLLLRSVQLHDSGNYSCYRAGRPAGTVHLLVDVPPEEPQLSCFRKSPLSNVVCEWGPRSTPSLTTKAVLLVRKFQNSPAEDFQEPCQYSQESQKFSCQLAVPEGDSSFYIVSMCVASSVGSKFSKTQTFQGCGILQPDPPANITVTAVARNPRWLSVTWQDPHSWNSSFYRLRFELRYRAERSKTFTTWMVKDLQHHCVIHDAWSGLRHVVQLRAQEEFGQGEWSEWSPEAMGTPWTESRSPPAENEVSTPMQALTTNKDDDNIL
Protocol: Kinetic analyses of antigen-antibody reactions at pH 7.4 were carried out on the four types of antibodies, i.e., the humanized PM1 antibody (wild type: WT), and […], H3pI/L73-IgG1, Fv2-IgG1, and Fv4-IgG1 constructed in Examples 2 and 10, by using a Biacore T100™ surface plasmon resonance system (GE Healthcare) (buffer: 10 mM MES (pH 7.4), 150 mM NaCl, 0.05% TWEEN® 20 (polyoxyethelene sorbitan monolaurate)). Each antibody was bound on a sensor chip on which an anti-IgG γ chain specific F(ab)₂ (Pierce) was immobilized by amine coupling, and then, SR344 adjusted to a concentration of 9.8 to 40 nM was injected thereto as an analyte. The association to and dissociation from SR344 were observed on a real-time basis for the pH-dependent-binding clones. All the measurements were carried out at 37° C. Association rate constants kₐ (1/Ms) and dissociation rate constants kd (1/s) were calculated using Biacore T100™ Evaluation Software (GE Healthcare), and dissociation constants KD (M) were calculated on the basis of those values (Table 7).
The association to and dissociation from SR344 were observed on a real-time basis using the same method as Example 10 for the eleven types of antibodies, humanized PM1 antibody (wild type: WT) and H3pI/L73-IgG1, Fv1-M71, Fv1-M73, Fv2-IgG1, Fv3-M71, Fv3-M73, Fv4-IgG1, Fv4-IgG2, Fv4-M58, and Fv4-M73, constructed as described above. The association rate constants kₐ (1/Ms) and dissociation rate constants kd. (1/s) were calculated by analysis in the same manner, and the dissociation constants KD (M) were calculated on the basis of those values (Table 11).

[2] = target: T1, recombinant soluble human IL-6 receptor …; assay: SPR Biacore T100, biotinylated SR344 on streptavidin chip (model of membrane-type IL-6 receptor), antibody as analyte, 37 C
Protocol: (§1) Binding to the membrane-type IL-6 receptor was evaluated by evaluating binding to the IL-6 receptor immobilized on a sensor chip. SR344 was biotinylated in accordance with a method known among persons with ordinary skill in the art, and the biotinylated SR344 was immobilized on the sensor chip via streptavidin using the affinity between streptavidin and biotin. All the measurements were carried out at 37° C. The mobile phase buffer was 10 mM MES (pH 5.8), 150 mM NaCl and 0.05% TWEEN® 20 (polyoxyethelene sorbitan monolaurate).
(§2) The pH-dependently-binding clones were injected under the condition of pH 7.4 to allow them to bind to SR344, and then, the pH-dependent dissociation of each clone at the pH of the mobile phase, pH 5.8, was observed. The results are shown in FIG. 21 (results for Fv1-M71, Fv1-M73, Fv3-M71, and Fv3-M73 are shown in FIG. 21, while results for other clones are shown in FIGS. 17 and 19). Analyses were carried out in the same manner as in Example 10 and the pH dependencies of the dissociation rate constants of all of the eleven types of clones are shown in Table 12.

[3] = target: T1, recombinant soluble human IL-6 receptor …; assay: SPR Biacore T100, biotinylated SR344 on streptavidin chip (model of membrane-type IL-6 receptor), antibody as analyte, bound at pH 7.4, dissociation at pH 7.4, 37 C
Protocol: as §1, §2

Kd [1]: 1.4 nM
koff [1]: 0.001 s⁻¹
kon [1]: 720000 M⁻¹ s⁻¹
kd (pH 5.8)/kd (pH 7.4) [2]: 5.56
koff [3]: 0.00047 s⁻¹
B1: Fv4-IgG1 (antibody)
heavy: not shown
light: DIQMTQSPSSLSASVGDSVTITCQASTDISSHLNWYQQKPGKAPELLIYYGSHLLSGVPSRFSGSGSGTDFTFTISSLEAEDAATYYCGQGNRLPYTFGQGTKVEIERTVAAPSVFIFPPSDEQLKSGTASVVCLLNNFYPREAKVQWKVDNALQSGNSQESVTEQDSKDSTYSLSSTLTLSKADYEKHKVYACEVTHQGLSSPVTKSFNRGEC
notes: VH3-IgG1 / VL3-CK
